Assay [1] deals with C1q (human) (UniProt P02745). As to the kind of experiment: C1q binding ELISA, antibody coated on plate up to 100 ug/ml, 2 ug/ml C1q. On the technique in general: ELISA stands for enzyme-linked immunosorbent assay.
Another assay addresses CD20 antigen (UniProt P11836). As to the kind of experiment: flow cytometry on WIL2-S cells expressing CD20; EC50 as percentage of C2B8 reference. Set-up: unit not given beside the values. For orientation: In flow cytometry, cells or beads pass a laser one at a time.
Assay [2] addresses C1q (human) (UniProt P02745). The assay is described as follows: cell-based or functional assay.
Assay [3] deals with C1q (human) (UniProt P02745). The assay is described as follows: C1q binding ELISA, antibody coated on plate, 2 ug/ml C1q, anti-C1q-HRP detection.

CD20 antigen, sequence (P11836 whole entry): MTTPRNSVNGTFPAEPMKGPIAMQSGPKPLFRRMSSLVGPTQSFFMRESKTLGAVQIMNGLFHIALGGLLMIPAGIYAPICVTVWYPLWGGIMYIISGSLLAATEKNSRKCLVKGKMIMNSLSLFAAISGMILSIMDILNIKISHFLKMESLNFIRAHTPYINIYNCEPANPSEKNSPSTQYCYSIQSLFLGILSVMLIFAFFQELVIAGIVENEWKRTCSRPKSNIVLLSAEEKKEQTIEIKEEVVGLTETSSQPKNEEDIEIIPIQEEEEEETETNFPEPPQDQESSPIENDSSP
C1q (human), sequence (P02745 23-245 limits assumed, chain 1 of 3): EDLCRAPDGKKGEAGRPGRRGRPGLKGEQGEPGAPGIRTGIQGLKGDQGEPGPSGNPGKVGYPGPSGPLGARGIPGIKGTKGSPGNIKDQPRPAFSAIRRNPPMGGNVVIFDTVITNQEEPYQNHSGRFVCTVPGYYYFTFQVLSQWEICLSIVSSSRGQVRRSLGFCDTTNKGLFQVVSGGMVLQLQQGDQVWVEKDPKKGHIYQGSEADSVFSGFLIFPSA
C1q (human), sequence (P02746 28-253 limits assumed, chain 2 of 3, further chain): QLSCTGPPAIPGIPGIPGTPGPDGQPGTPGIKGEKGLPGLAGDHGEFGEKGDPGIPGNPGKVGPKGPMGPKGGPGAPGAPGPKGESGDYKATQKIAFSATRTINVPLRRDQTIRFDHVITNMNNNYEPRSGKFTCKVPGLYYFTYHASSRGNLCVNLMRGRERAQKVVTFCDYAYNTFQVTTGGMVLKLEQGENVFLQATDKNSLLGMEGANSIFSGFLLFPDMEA
C1q (human), sequence (P02747 29-245 limits assumed, chain 3 of 3, further chain): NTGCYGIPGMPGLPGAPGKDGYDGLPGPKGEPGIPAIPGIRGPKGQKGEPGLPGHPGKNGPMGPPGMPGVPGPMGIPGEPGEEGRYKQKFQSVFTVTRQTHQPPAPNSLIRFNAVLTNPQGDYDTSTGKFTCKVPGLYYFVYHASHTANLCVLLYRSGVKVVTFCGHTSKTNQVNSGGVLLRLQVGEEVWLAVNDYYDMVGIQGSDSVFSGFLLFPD

C2B8 mutant P331A (antibody) had a fold lower binding than wild type C2B8 (fold lower than wild type) with C1q (human) [1] of 60. Further, the EC50 as a percentage of the wild type (% of wild type) with CD20 antigen amounted to 103.

On to C2B8 mutant P329A (antibody), for which, in the assay with CD20 antigen, the EC50 as a percentage of the wild type (% of wild type) amounted to 112.

In the assay with C1q (human) [2], C2B8 mutant E318A (antibody) gave a CDC (percent activity as compared to wild type C2B8) (% of wild type) of 108. In the assay with CD20 antigen, this substance showed an EC50 as a percentage of the wild type (% of wild type) of 89. The same substance showed a percent decrease in binding against wild type C2B8 in the assay with C1q (human) [3] of 30 % decrease.

Consider C2B8 mutant K320A (antibody), for which the CDC (percent activity as compared to wild type C2B8) (% of wild type) in the assay with C1q (human) [2] is 108. The EC50 as a percentage of the wild type (% of wild type) with CD20 antigen came to 102.

These data come from patent publication US20030166868A1.
